Reference: patent publication US11898183B2, “Programmed microorganisms to attenuate a disease” (priority 2020, dated 2024)

B1: O-methyltransferase 3 (OMT) (SEQ ID NO: 30) Sinopodophyllum hexandrum (protein)
chain: MEMAPTMDLEIRNGNGYGDSGEELLAAQAHIYNHIFNFISSMALKCAVELNIPEILHNHQPKAVTLSELVQALQIPQAKSACLYRLLRILVHSGFFAITKIQSEGDEEGYLPTLSSKLLLKNHPMSMSPCLLGLVNPTMVAPMHFFSDWFKRSDDMTPFEATHGASLWKYFGETPHMAEIFNEAMGCETRLAMSVVLKECKGKLEGISSLVDVGGGTGNVGRAIAEAFPNVKCTVLDLPQVVGNLKGSNNLEFVSGDMFQFIPPADVVFLKWILHDWNDEECIKILKRCKEAIPSKEEGGKLIIIDMVVNDHNKGSYESTETQLFYDLTLMALLTGTERTETEWKKLFVAAGFTSYIISPVLGLKSIIEVFP
modifications: Depcits amino acid sequence of O-methyltransferase 3 (OMT) of Sinopodophyllum hexandrum
B2: CYP719 (SEQ ID NO: 26) Cinnamomum micranthum (protein)
chain: MEAIWTAVAIGIAAAVLMAFRGRQRQRLSRKPTQWPPGPTRLPLIGNMHQILLKGGDPFHVAINKLAQVYGPLMTVWFGTRQPTIIVSDHNLVWEVLVSKSADYAAREIPITLKPSLADFRTIVSSNAGPLWHSLRRGLQNGAIGPHSLSLQAPFQESDMAQMINNMIKEANLNGGVVKPFPHIRRAIIKLLARICFGCDFSDEEFDATMDFMVEEALRYSDDSRILDTFPPARFLPSVKRAVMQMEKVKLRLMECIGRPLDSPLPPTCYAHFLLSQSFPREVAIFSIFELFLLGVDSTGSTTMWGLGLLMQNQEAQQKLYQEIREHASCNEKGVVKVEELGKLEYLQAVAKETMRMKPIAPLAVPHQAARDTTLDGLHVAEGTTVLANLYALHYDPKVWDEPERFKPERFLESSKEFLGKRGQYSFLPFGAGMRACAGMEVGKLQLPFAICNLVNAFNWSNVVEKEAPKLIEGFSFILSMKTPLEARIVPRGI
modifications: Depicts the amino acid sequence of CYP719 of Cinnamomum micranthum
B3: O-methyltransferase 3 (OMT) (SEQ ID NO: 28) Papaver somniferum (protein, listed as Papaver somniferum)
chain: MEVVSKIDQENQAKIWKQIFGFAESLVLKCAVQLEIAETLHNNVKPMSLSELASKLPAQPVNEDRLYRILHFLVHMKLFNKDATTQKYSLAPPAKYLLKGWEKSMVPSILSVTDKDFTAPWNHLGDGLTGNCNAFEKALGKGIRVYMRENPEKDQLFNEGMACDTRLFASALVNECKSIFSDGINTLAGVGRGTGTAVKAISKAFPDIKCTIHDLPEVTSKNSKIPRDVFKSVPSADAIFMKSILHEWNDEECIQILKRCKEAIPKGGKVIIADVVIDMDSTHPYSKSRLAMDLAMMLHTGGKERTEEDWKKLIDAAGFASCKITKLSALQSVIEAYPH
B4: CYP71 (SEQ ID NO: 32) Cinnamomum micranthum (protein)
chain: MALLLSLLFFASALIFLLKLNGQRANKTDVPPSPPKLPLIGNLHQLGTLPHRSLRSLAGKYGPLMLLYLGRIPTLIVSSEEMAEQIMKTHDLIFASRPSITAAKELLYGCTDLAFASYGEYWRQVRKMCVLELLSIKRVNSFRSIMEEEVGLMIERISQSSSTGAAVNLAELFLSLTGGTIARAALGKKYEGEAEEGRNKYADLVKELHALLGAFSVGDYFPSLAWVDVVTGLHGKLKRNSRELDRFLDQVIEHHLMRPLDGCDVGEHTDLVDVMLQVQKDSNRDIHLTRDNIKAIILDMFSAGTDTTALTLEWVMAELAKHPNVMKKAQGEVRRVVDVKANISEEHLCQLNYMKSIIKETLRLHPPAPLLVPRESTTNVKIQNFHIPPKTRVFINAYAIGRDPTSWENPEEFLPERFANNSVDFKGQDFQFIPFGAGRRGCPGLSFAITSLELALANLLYWFDWELPQGVTEEDLDMSEALGITVHKKLPLYLVPKNHFS
modifications: Depicts the amino sequence of CYP71 of Cinnamomum micranthum

Tested on: pathway specific substrates
Assay: Enzyme functionality of pathway enzyme homologs and fusion constructs in lysed E. coli cell extracts, product by HPLC
Type: biochemical, E. coli BL21
Conditions: recombinant E. coli BL21 clone, lysed cell extract
In short: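 Enzymes and fusion constructs were expressed in E. coli BL21 (pET28, T7 promoter) with 0.1 mM IPTG at 30 °C for ~20 h in M9 medium. Cleared freeze-thaw lysates were incubated with pathway-specific substrates. Products were quantified by HPLC relative to empty-plasmid lysates.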

Molecule	Enzyme activity in terms of product formation (in %) (substrate tested: Pluviatolide) [%]	other results
B1	99	
B2		Enzyme activity in terms of product formation (in %) (substrate tested: Matairesinol): 97%
B3	88	
B4		Enzyme activity in terms of product formation (in %) (substrate tested: Bursehernin): 94%
